In patent US20220000998A1 one finds Kd, koff and kon data, which are given here for three molecules.

Experiment [1] concerns the target SM083P004 (Clostridium tetani).
The target of experiment [2] is MTTE peptide (minimal tetanus toxin epitope), biotinylated (Clostridium tetani).

B1: scFv Y-SM083-p04-D04 (scFv)
scFv: EVQLLESGGGLVQPGGSLRLSCAASGFTFSGYYMYWVRQAPGKGLEWVSYIGYSGGGTGYADSVKGRFTISRDNSKNTLYLQMNSLRAEDTAVYYCARVPFGAFDYWGQGTLVTVSSGGGGSGGGGSGGGGSDIQMTQSPSSLSASVGDRVTITCRASQSISSYLNWYQQKPGKAPKLLIYAASSLQSGVPSRFSGSGSGTDFTLTISSLQPEDFATYYCQQYYGFPYTFGQGTKLEIK
For the molecule B1, in experiment [1], the Kd (usually the concentration at which binding is half-saturated) amounted to 3.3 nM, the koff (usually the rate constant with which the complex falls apart) is 0.00043 s⁻¹ and the kon (commonly a measure of how fast the partners come together) came to 130000 M⁻¹ s⁻¹.

B2: IBIIICI-b scFv (scFv)
scFv: EVRLLQSGAALVRPGASVKLSCTASGFNIKDFNIHWVKQRPEQGLEWIGRIDPENGDAEYVPKFQVRATMTTDTSSNTVYLHLSSLTSGDTAVYYCTTGSYDLDVEYWGQGTTLTVSSGGGGSGGGGSGGGGSGGGGSELQMTQSPSSLSASLGDTVTITCHASQNINVWLSWYQQRPGNIPKLLIYKASTLHTGVPSRFRGSGSGTGFTLTISSLQPEDIATYYCQQGQSYPLTFGAGTKLELK
In the case of B2, in experiment [2], the dissociation constant Kd was 0.52 nM, the koff stood at 0.00048 s⁻¹ and the kon turned out to be 920000 M⁻¹ s⁻¹.

B3: 14GIIICII-b scFv (scFv)
scFv: QVQLQQPGAELVMPGASVNLSCKASGYTFTDYWMHWVKQRPGQGLEWIGEIDPSDNFSNLNQNFRGKATLTVDKSSRTAFLQLSSLTSEDSAVYYCAVEDYWGQGTTLTVSSGGGGSGGGGSGGGGSGGGGSDIVMTQATPSVLVTPGEAVSISCRASRSLLHSNGITYLYWFLQRPGQSPQVLIYRMSNLVSGVPDRFSGSGSGTAFTLRISRVEAEDVGVYYCMQHLEFPYTFGGGTKLEIK
With B3, in experiment [2], the Kd was determined as 1.8 nM, the koff was found to be 0.00032 s⁻¹ and the association rate constant (kon) was 180000 M⁻¹ s⁻¹.
